Laboratory results from patent WO2016167227A1.

Target: human-derived insoluble fibrin (human) (UniProt P02671)
Assay: ELISA, peroxidase-labelled antibody on fibrin plate; 0.1 μg/mL of 443-2 gave about the signal of 10 μg/mL of the reference

Sequence of UniProt P02671 (P02671 36-629 limits assumed, chain 1 of 3): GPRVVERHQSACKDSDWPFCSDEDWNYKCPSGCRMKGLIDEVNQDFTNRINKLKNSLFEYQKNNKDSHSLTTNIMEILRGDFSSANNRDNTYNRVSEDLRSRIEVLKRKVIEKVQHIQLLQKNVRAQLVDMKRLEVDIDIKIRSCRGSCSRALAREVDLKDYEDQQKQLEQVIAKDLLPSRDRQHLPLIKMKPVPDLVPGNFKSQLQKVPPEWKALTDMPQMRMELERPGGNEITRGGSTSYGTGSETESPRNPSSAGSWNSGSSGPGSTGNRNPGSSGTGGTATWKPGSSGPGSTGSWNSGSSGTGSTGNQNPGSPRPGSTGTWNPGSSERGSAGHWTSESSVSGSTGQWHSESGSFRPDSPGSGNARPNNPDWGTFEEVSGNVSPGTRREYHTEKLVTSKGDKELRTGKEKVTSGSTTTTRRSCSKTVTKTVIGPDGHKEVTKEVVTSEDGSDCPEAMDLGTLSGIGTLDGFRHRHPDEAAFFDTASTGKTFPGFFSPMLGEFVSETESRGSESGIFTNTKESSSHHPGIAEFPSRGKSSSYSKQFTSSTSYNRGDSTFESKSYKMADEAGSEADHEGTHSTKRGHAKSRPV
Sequence of UniProt P02671 (chain, as listed by the source limits assumed, chain 2 of 3): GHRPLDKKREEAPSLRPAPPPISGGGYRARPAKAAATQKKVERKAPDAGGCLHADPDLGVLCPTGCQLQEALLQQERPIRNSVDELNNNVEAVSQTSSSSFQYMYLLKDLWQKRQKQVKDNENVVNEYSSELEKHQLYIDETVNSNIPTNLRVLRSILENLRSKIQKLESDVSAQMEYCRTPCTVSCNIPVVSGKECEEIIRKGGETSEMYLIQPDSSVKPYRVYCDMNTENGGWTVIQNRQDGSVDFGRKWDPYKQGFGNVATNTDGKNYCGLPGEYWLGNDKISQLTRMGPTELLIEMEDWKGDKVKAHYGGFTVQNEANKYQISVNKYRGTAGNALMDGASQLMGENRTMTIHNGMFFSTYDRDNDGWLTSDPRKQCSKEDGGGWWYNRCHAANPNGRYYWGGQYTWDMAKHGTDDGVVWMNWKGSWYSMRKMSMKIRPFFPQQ
Sequence of UniProt P02671 (chain, as listed by the source limits assumed, chain 3 of 3): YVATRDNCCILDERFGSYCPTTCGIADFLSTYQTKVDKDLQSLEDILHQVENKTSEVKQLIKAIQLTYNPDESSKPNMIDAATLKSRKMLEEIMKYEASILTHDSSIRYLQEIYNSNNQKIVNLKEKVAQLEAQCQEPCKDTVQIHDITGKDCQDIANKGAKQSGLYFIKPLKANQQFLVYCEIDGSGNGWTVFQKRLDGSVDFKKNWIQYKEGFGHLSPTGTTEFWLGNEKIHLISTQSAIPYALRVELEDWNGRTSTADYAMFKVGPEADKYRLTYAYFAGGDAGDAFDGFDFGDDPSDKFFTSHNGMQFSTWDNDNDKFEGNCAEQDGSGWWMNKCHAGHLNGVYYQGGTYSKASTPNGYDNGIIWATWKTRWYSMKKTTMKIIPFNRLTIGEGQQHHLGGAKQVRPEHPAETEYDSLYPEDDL

B1: 443-2 antibody (antibody, V domains shown)
VH: QIQLVQSGPELKKPGESVKISCKASGYTFTDYAMNWVKQAPGNGLKWMGWINTQTGKPTYADDFKQRFVFSLETSATTAYLQINNLNIEDTATYFCTRLMDAWGQGASVTVSS
VL: DIVMTQSPSSLAVSAGETVTINCKSSQSLLSSGNQKNYLAWYQQKPGQSPKLLIYLASTRESGVPDRLIGSGSGTDFTLTISSMQAEDLAIYYCQQYYETPHTFGAGTKLELKR
Q: Which fold affinity for insoluble fibrin against the 102-10 antibody (printed 102-12) does the source give for B1 here?
A: 100 times
